Laboratory results as given in patent US20250171549A1.
“And” between values parts separate entries of the source, which are not always exact repeats. Identical values can stand only once.

What was measured:
[1] = biological target: cynomolgus monkey CCR8 (comprising threonine at position four) (cynomolgus monkey); assay: KinExA, 293T cells expressing cynomolgus CCR8
[2] = biological target: cynomolgus monkey CCR8 (comprising threonine at position four) (cynomolgus monkey); assay: flow cytometry, primary cynomolgus Tregs (PBMC, CD4+CD25+CD127- gate)

cynomolgus monkey CCR8 (comprising threonine at position four) (cynomolgus monkey), sequence (O97665 other isoform, or with tags, fused parts or gaps): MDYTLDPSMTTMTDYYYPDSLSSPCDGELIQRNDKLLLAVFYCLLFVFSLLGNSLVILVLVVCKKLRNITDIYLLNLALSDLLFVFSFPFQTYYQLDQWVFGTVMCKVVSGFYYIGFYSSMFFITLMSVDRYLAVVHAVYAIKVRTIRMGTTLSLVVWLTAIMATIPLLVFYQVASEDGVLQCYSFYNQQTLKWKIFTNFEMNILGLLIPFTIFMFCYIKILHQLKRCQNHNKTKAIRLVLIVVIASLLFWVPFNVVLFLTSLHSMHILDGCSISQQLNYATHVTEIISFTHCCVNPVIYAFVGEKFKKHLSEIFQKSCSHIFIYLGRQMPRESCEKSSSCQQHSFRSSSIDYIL

- Kd [1]: > 50 nM
- CCR8+CD127-CD25+CD4, % positive [2]: 8.5% and 17.9%
B1: Antibody 2 IgG2 (antibody, V domains shown)
VH: QVQLVESGGGVVQPGRSLRLSCAASGFTFSNYGMHWVRQAPGKGLEWVAVISYDGSNKFYADSVKGRFTISRDNSKKTLYLQMSSLRVEDTAVYYCARAGGIGRFDYWGQGTLVTVSS
VL: DFVMTQTPLSLSVTPGQPASISCKYSQSLLHSDGKTYLFWYLQKPGQPPHLLIYEVSNRFSGVPDRFSGSGSGTDFTLKISRVEAEDVGLYYCMQTLKLPLTFGGGTKVEINR
